From patent publication US20260098102A1 (NATIONAL UNIVERSITY CORPORATION KOBE UNIVERSITY, published 2026) come the findings set out here.

As usually defined, the Kd is the equilibrium constant for the complex coming apart. Read a low Kd as a tighter complex. In general, EC50 (read off the curve) refers to the midpoint of the concentration-response curve. Read a low EC50 (read off the curve) as a more potent agent.

Assay [1] has as its target T1, SIRPA_V2_IgV (human).
T1 construct: Secreted recombinant protein; The crystal model held residues 33 to 143 of human SIRPA Variant 2
The experiment in a line: SPR Biacore T200, antibody captured on anti-human IgG (Fc), SIRPA_V2_IgV as analyte (0.25 to 16 nM), 1:1 model. On the procedure:
(§1) The dissociation constants were measured by a capture method comprising capturing each antibody as a ligand to an Anti-Human IgG (Fc) antibody immobilized using Human Antibody Capture Kit (GE Healthcare Bioscience Corp.) and measuring an antigen as an analyte, using Biacore T200 (GE Healthcare Bioscience Corp.). HBS-EP+ (GE Healthcare Bioscience Corp.) was used as a running buffer, and CM5 (GE Healthcare Bioscience Corp.) was used as a sensor chip. Onto the chip, 2 μg/mL of various antibodies were added at 10 μL/min for 30 seconds, then a serially diluted solution (0.25 to 16 nM) of the human SIRPA protein as an antigen was added at a flow rate of 30 μL/min for 120 seconds, and subsequently the dissociation phase for 600 seconds was monitored. As a regenerant, 3 M magnesium chloride (GE Healthcare Bioscience Corp.) was added at a flow rate of 20 μL/min for 30 seconds. For data analysis, a binding rate constant (ka), a dissociation rate constant (kd), and a dissociation constant (KD; KD=kd/ka) were calculated using a 1:1 binding model.

In assay [2] the target is T2, SIRPA_V1_IgV (human, UniProt P78324 31-149).
T2 construct: Secreted recombinant protein from FreeStyle 293F cells
T2 sequence (P78324 other isoform, or with tags, fused parts or gaps limits assumed): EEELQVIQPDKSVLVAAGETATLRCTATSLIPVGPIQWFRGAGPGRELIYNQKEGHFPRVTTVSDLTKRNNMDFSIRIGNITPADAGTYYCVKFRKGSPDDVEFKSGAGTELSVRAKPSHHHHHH
The experiment in a line: SPR Biacore T200, antibody captured on anti-human IgG (Fc), SIRPA_V1_IgV as analyte (0.25 to 16 nM), 1:1 model. As for the experimental part:
as §1

The target of assay [3] is T2, SIRPA_V1_IgV. The experiment in a line: SPR Biacore T200, antibody captured, SIRPA_V1_IgV as analyte, 1:1 model. On the procedure: The dissociation constants of the cD13, cF44, and cF63 prepared in Example 4 against the human SIRPA_V1_IgV prepared in Example 1 were determined by a capture method comprising capturing a human chimeric antibody as a ligand and measuring an antigen as an analyte, using Biacore T200 (GE Healthcare Bioscience Corp.). HBS-EP+ (GE Healthcare Bioscience Corp.) was used as a running buffer, and CM5 (GE Healthcare Bioscience Corp.) was used as a sensor chip. In an amount of 1 μg/mL human chimeric antibody was added onto a chip at a rate of 10 μL/min for 60 seconds, a serially diluted solution of human SIRPA protein as an antigen (0.5 to 8 μg/mL) was added at a flow rate of 30 μL/min for 120 seconds, and the dissociation phase continued to be monitored for 600 seconds. As a regenerant, 3 M magnesium chloride (GE Healthcare Bioscience Corp.) was added at a flow rate of 20 μL/min for 30 seconds. For data analysis, the binding rate constant (ka), dissociation rate constant (kd), and dissociation constant (KD; KD=kd/ka) were calculated using a 1:1 binding model.
Background: SPR reads the build-up and loss of mass on a sensor chip optically.

The target in assay [4] is T3, human SIRPA_V2 protein (human, UniProt P78324 31-504).
T3 construct: Expressed on 293α cells from pcDNA3.2 V5-DEST or pFLAG V5-DEST (FLAG-tagged) vectors; also called human SIRPA Variant 2; ECD variant (full-length, amino acids 1 to 504)
The experiment in a line: cell-based ELISA on 293α cells expressing FLAG-tagged SIRPA_V2; Abs 490 normalized to FLAG tag. On the procedure:
The 293α cells [described in Example 1)-6] were prepared in a 10% FBS-containing DMEM medium to 5×10⁵ cells/mL. pFLAG V5-DEST-SIRPA_V1, pFLAG V5-DEST-SIRPA_V2, or pFLAG V5-DEST was introduced into the cells using Lipofectamine LTX (Invitrogen), followed by addition of 100 μL per well to a 96-well plate (Corning Incorporated), and cells were cultured overnight in the 10% FBS-containing DMEM medium at 37° C. under a 5% CO₂ condition. The obtained introduced cells were used for cell-based ELISA in a state that they adhered to each other. After the culture supernatant was removed, 50 μL per well of the cD13 (IgG2 and IgG4pf), cF44 (IgG1, IgG2, IgG4p, and IgG4pf), and cF63 (IgG2 and IgG4pf) antibodies prepared in Examples 3 and 4 were added to each of pFLAG V5-DEST-SIRPA_V1, pFLAG V5-DEST-SIRPA_V2, or pFLAG V5-DEST-introduced cells at final concentrations of 0 to 10,000 ng/mL, and the mixture was allowed to stand at 4° C. for one hour. Further, 50 μL per well of anti-FLAG M2 antibody (SIGMA) diluted with 5% FBS-containing PBS to a final concentration of 10,000 ng/mL was added to a well for detecting expression of each SIRPA construct, and the mixture was allowed to stand at 4° C. for one hour. The cells in the well were washed once with 5% FBS-containing PBS, followed by addition of Peroxidase AffiniPure F(ab′)₂ Fragment Goat Anti-Human IgG, Fcγ Fragment Specific (Jackson ImmunoResearch) diluted 1000-fold with 5% FBS-containing PBS, and the mixture was allowed to stand at 4° C. for one hour. The cells in the well were washed five times with 5% FBS-containing PBS, followed by addition of 100 μL per well of an OPD coloration solution [o-phenylenediamine dihydrochloride (Wako Pure Chemical Industries, Ltd.) and H₂O₂ were dissolved in an OPD solution (0.05 M trisodium citrate, 0.1 M disodium hydrogen phosphate dodecahydrate, pH 4.5) at 0.4 mg/mL and 0.6% (v/v), respectively]. A coloration reaction was performed with stirring occasionally, 100 μL per well of 1 M HCl was added to terminate the coloration reaction, and then absorbance at 490 nm was measured with a plate reader ARVO (PerkinElmer Inc.). Binding of the human chimeric anti-human SIRPA antibodies to each construct was standardized by expression of the FLAG tag.
For orientation: In an ELISA, binding on a coated surface is turned into a signal by an enzyme label.
Target sequence in this assay (P78324 other isoform, or with tags, fused parts or gaps limits assumed): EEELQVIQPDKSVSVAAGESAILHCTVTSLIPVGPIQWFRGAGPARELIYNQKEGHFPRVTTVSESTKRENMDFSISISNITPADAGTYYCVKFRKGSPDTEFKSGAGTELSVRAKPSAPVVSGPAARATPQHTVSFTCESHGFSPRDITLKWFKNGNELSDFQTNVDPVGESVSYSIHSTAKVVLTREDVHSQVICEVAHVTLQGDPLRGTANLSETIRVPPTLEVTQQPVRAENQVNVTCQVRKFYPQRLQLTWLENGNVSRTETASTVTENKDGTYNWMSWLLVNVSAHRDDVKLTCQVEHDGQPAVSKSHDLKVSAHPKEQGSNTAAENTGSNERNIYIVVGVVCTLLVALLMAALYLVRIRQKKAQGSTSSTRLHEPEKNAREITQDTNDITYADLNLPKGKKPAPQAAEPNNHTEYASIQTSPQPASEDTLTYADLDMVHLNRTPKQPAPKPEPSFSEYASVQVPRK

Assay [5] deals with T3, human SIRPA_V2 protein. The experiment in a line: blocking cell-based ELISA: peroxidase-labeled CD47-Fc (10,000 ng/mL) on 293α cells expressing SIRPA_V2; y axis = CD47-Fc signal in % of no antibody [ii].

T1 sequence (chain, as listed by the source limits assumed): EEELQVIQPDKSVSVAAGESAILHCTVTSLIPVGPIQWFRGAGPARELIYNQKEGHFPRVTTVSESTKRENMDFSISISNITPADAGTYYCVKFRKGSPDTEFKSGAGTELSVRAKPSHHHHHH

B1: humanized anti-SIRPA antibody hD13_H1L3 (antibody, human IgG4 S228P, kappa, F234A L235A, V domains shown)
VH: QVQLVESGGGVVQPGRSLRLSCAASGFTFSDYGMIWVRQAPGKGLEWVASISSSSSYIYYADSVKGRFTISRDNSKNRLYLQMNSLRAEDTAVYYCARRYYGFNYPFDYWGQGTMVTVSS
VL: DTQLTQSPSSLSASVGQRVTITCGASKSVRTYMHWYQQKPGKQPKLLIYSASNLEAGVPSRFSGSGSGTDFTLTISSLQPEDFATYYCQQSNEPPYTFGQGTKLEIKR
notes: hH1 heavy chain (IgG4proFALA) and hL3 kappa light chain; also called hD13_HIL3; HIL3 antibody
Turning to B1, the Kd stood at 1.17 nM in assay [1] and 0.252 nM in assay [2].

B2: human chimeric anti-SIRPA antibody cD13 (antibody, human IgG4 S228P, kappa, F234A L235A, V domains shown)
VH: EVQLVESGGGLVQPGRSLKLSCLASGFTFSDYGMIWVRQAPGKGLEWVASISSSSSYIYYADTVKGRFTISRENAKNTLFLHMTSLRSEDTALYYCARRYYGFNYPFDYWGQGVMVTVSS
VL: DTVLTQSPALAVSLGQRVTISCGASKSVRTYMHWYQQKSGQQPKLLIYSASNLEAGVPSRFSGSGSGTDFTLTIDPVEADDIANYYCQQSNEPPYTFGAGTKLELKR
notes: Human IgG4proFALA heavy chain, human kappa light chain; also called cD13 (IgG4pf); human chimeric antibody D13
Turning to B2, binding in assay [3] was characterised by a dissociation constant (Kd) of 0.0811 nM. Further, the “EC50 (read off the curve)” value in assay [4] was about 50 ng/mL. Besides, the “IC50 (read off the curve)” value in assay [5] was about 300 ng/mL.
